In US20190359693A1:

Key:
Test in all cases: cell-based or functional assay
[1] = target: HA of H1N1 A/New Caledonia/20/1999 (influenza A virus)
[2] = target: HA of H1N1 A/Puerto Rico/8/34-MA (influenza A virus)
[3] = target: HA of H3N2 A/Brisbane/10/2007 (influenza A virus)
[4] = target: HA of H5N1 A/Vietnam/1194/04 (influenza A virus)
[5] = target: HA of H7N3 A/NIBRG/60 (A/mallard/NL/12/00) (influenza A virus)
[6] = target: hemagglutinin (HA) of influenza virus H1N1 A/New Caledonia/20/99 (influenza A virus)
[7] = target: hemagglutinin (HA) of influenza virus H3N2 A/Brisbane/10/07 (influenza A virus)
[8] = target: hemagglutinin (HA) of influenza virus H3N2 A/Wisconsin/67/05 (influenza A virus)
[9] = target: hemagglutinin (HA) of influenza virus H5N1 A/Vietnam/1194/04 (influenza A virus)
[10] = target: hemagglutinin (HA) of influenza virus H7N3 A/NIBRG/60 (A/mallard/Netherlands/12/00) (influenza A virus)
[11] = target: hemagglutinin (HA) of influenza virus H1N1 A/California/07/09 (influenza A virus)
[12] = target: hemagglutinin (HA) of influenza virus H1N1 A/Puerto Rico/8/34-MA (influenza A virus)
[13] = target: hemagglutinin (HA) of influenza virus H7N7 A/PR8 H7N7-NY (influenza A virus)
[14] = target: hemagglutinin (HA) of influenza virus B/Florida/04/06 (Yamagata) (influenza B virus)

B1: SD1034 (VHH)
VHH: EVQLVESGGGLVQAGGSLRLSCAASGTIFGIRVNTMGWYRQAPGEQRELVATITRSGGTNYADSVKDRFTISGDFAKDTVYLQMMHLKPEDTAVYYCNGRWALTDYWGQGTQVTVSS
- VNA titer [1]: 161 nM
- VNA titer [2]: 756 nM
- VNA titer [3]: > 1000 nM
- VNA titer [4]: 722 nM
- VNA titer [5]: > 1000 nM

B2: MD2306 (bispecific antibody)
chain: EVQLVESGGGLVQPGGSLRLSCAVSISIFDIYAMDWYRQAPGKQRDLVATSFRDGSTNYADSVKGRFTISRDNAKNTLYLQMNSLKPEDTAVYLCHVSLYRDPLGVAGGMGVYWGKGALVTVSSGGGGSGGGGSEVQLVESGGGLVQPGGSLRLSCAVSISIFDIYAMDWYRQAPGKQRDLVATSFRDGSTNYADSVKGRFTISRDNAKNTLYLQMNSLKPEDTAVYLCHVSLYRDPLGVAGGMGVYWGKGALVTVSSGGGGSGGGGSEVQLVESGGGLVQPGGSLRLSCAATGFTLENKAIGWFRQTPGSEREGVLCISKSGSWTYYTDSMRGRFTISRDNAENTVYLQMDSLKPEDTAVYYCATTTAGGGLCWDGTTFSRLASSWGQGTQVTVSS
- average neutralization titer [6]: 6.1 nM
- average neutralization titer [7]: 10.7 nM
- average neutralization titer [8]: 5.4 nM
- average neutralization titer [9]: 4.7 nM
- average neutralization titer [10]: 15.4 nM

B3: MD1215 (VHH)
chain: EVQLVESGGGLVQAGGSLKLSCAASGRTYAMGWFRQAPGKEREFVAHINALGTRTYYSDSVKGRFTISRDNAKNTEYLEMNNLKPEDTAVYYCTAQGQWRAAPVAVAAEYEFWGQGTQVTVSSAAAGGGGSGGGGSGGGGSGGGGSGGGGGGSGGGGSGGGGSGGGGSGGGGSGGGGSGGGGSEVQLVESGGGLVQAGGSLKLSCAASGRTYAMGWFRQAPGKEREFVAHINALGTRTYYSDSVKGRFTISRDNAKNTEYLEMNNLKPEDTAVYYCTAQGQWRAAPVAVAAEYEFWGQGTQVTVSS
- neutralization titer [11]: 4.1 nM
- neutralization titer [12]: 39.6 nM
- neutralization titer [8]: 34.1 nM
- neutralization titer [9]: 918 nM

B4: MD2317 (bispecific antibody)
chain: EVQLVESGGGLVQPGGSLRLSCAVSISIFDIYAMDWYRQAPGKQRDLVATSFRDGSTNYADSVKGRFTISRDNAKNTLYLQMNSLKPEDTAVYLCHVSLYRDPLGVAGGMGVYWGKGALVTVSSGGGGSGGGGSEVQLVESGGGLVQAGDSLRISCAASGRTLSIYSMGWFRQAPGKEREFVATIGWNSGRTFYPDSLKGRFTISRDNARNTLYLQMNNLRPEDTAVYYCAAAKGPLRLSSQADYWGQGTQVTVSSGGGGSGGGGSEVQLVESGGGLVQPGGSLRLSCAATGFTLENKAIGWFRQTPGSEREGVLCISKSGSWTYYTDSMRGRFTISRDNAENTVYLQMDSLKPEDTAVYYCATTTAGGGLCWDGTTFSRLASSWGQGTQVTVSS
- average neutralization titer [8]: 12.8 nM
- average neutralization titer [10]: 12.8 nM
- average neutralization titer [13]: 12.8 nM

B5: MD2406 (VHH)
chain: EVQLVESGGGLVQPGGSLRLSCAVSISIFDIYAMDWYRQAPGKQRDLVATSFRDGSTNYADSVKGRFTISRDNAKNTLYLQMNSLKPEDTAVYLCHVSLYRDPLGVAGGMGVYWGKGALVTVSSGGGGSGGGGSEVQLVESGGGLVQPGGSLRLSCAVSISIFDIYAMDWYRQAPGKQRDLVATSFRDGSTNYADSVKGRFTISRDNAKNTLYLQMNSLKPEDTAVYLCHVSLYRDPLGVAGGMGVYWGKGALVTVSSGGGGSGGGGSEVQLVESGGGLVQPGGSLRLSCAVSISIFDIYAMDWYRQAPGKQRDLVATSFRDGSTNYADSVKGRFTISRDNAKNTLYLQMNSLKPEDTAVYLCHVSLYRDPLGVAGGMGVYWGKGALVTVSSGGGGSGGGGSEVQLVESGGGLVQPGGSLRLSCAVSISIFDIYAMDWYRQAPGKQRDLVATSFRDGSTNYADSVKGRFTISRDNAKNTLYLQMNSLKPEDTAVYLCHVSLYRDPLGVAGGMGVYWGKGALVTVSS
- average neutralization titer [8]: 4.6 nM
- average neutralization titer [10]: 4.6 nM
- average neutralization titer [13]: 11 nM

B6: MD2320 (bispecific antibody)
chain: EVQLVESGGGLVQAGDSLRISCAASGRTLSIYSMGWFRQAPGKEREFVATIGWNSGRTFYPDSLKGRFTISRDNARNTLYLQMNNLRPEDTAVYYCAAAKGPLRLSSQADYWGQGTQVTVSSGGGGSGGGGSEVQLVESGGGLVQPGGSLRLSCAVSISIFDIYAMDWYRQAPGKQRDLVATSFRDGSTNYADSVKGRFTISRDNAKNTLYLQMNSLKPEDTAVYLCHVSLYRDPLGVAGGMGVYWGKGALVTVSSGGGGSGGGGSEVQLVESGGGLVQPGGSLRLSCAATGFTLENKAIGWFRQTPGSEREGVLCISKSGSWTYYTDSMRGRFTISRDNAENTVYLQMDSLKPEDTAVYYCATTTAGGGLCWDGTTFSRLASSWGQGTQVTVSS
- average neutralization titer [8]: > 1000 nM
- average neutralization titer [10]: 15.3 nM
- average neutralization titer [13]: 15.3 nM

B7: MD1213 (VHH)
chain: EVQLVESGGGLVQAGGSLKLSCAASGRTYAMGWFRQAPGKEREFVAHINALGTRTYYSDSVKGRFTISRDNAKNTEYLEMNNLKPEDTAVYYCTAQGQWRAAPVAVAAEYEFWGQGTQVTVSSAAAGGGGSGGGGSGGGGSEVQLVESGGGLVQAGGSLKLSCAASGRTYAMGWFRQAPGKEREFVAHINALGTRTYYSDSVKGRFTISRDNAKNTEYLEMNNLKPEDTAVYYCTAQGQWRAAPVAVAAEYEFWGQGTQVTVSS
- neutralization titer [11]: 2.4 nM
- neutralization titer [12]: 27.8 nM
- neutralization titer [8]: 18.6 nM
- neutralization titer [9]: < 1000 nM

B8: MD2303 (bispecific antibody)
chain: EVQLVESGGGLVQPGGSLRLSCAVSISIFDIYAMDWYRQAPGKQRDLVATSFRDGSTNYADSVKGRFTISRDNAKNTLYLQMNSLKPEDTAVYLCHVSLYRDPLGVAGGMGVYWGKGALVTVSSGGGGSGGGGSEVQLVESGGGLVQAGGSLKLSCAASGRTYAMGWFRQAPGKEREFVAHINALGTRTYYSDSVKGRFTISRDNAKNTEYLEMNNLKPEDTAVYYCTAQGQWRAAPVAVAAEYEFWGQGTQVTVSSGGGGSGGGGSEVQLVESGGGLVQPGGSLRLSCAATGFTLENKAIGWFRQTPGSEREGVLCISKSGSWTYYTDSMRGRFTISRDNAENTVYLQMDSLKPEDTAVYYCATTTAGGGLCWDGTTFSRLASSWGQGTQVTVSS
- average neutralization titer [14]: 412 nM
- average neutralization titer [6]: 7.2 nM
- average neutralization titer [12]: 9.1 nM
- average neutralization titer [7]: 12.8 nM
- average neutralization titer [8]: 15 nM
- average neutralization titer [9]: 9.1 nM
- average neutralization titer [10]: 10.2 nM
- average neutralization titer [13]: 18.2 nM

B9: MD2322 (VHH)
chain: EVQLVESGGGLVQPGGSLRLSCAVSISIFDIYAMDWYRQAPGKQRDLVATSFRDGSTNYADSVKGRFTISRDNAKNTLYLQMNSLKPEDTAVYLCHVSLYRDPLGVAGGMGVYWGKGALVTVSSGGGGSGGGGSEVQLVESGGGLVQPGGSLRLSCAVSISIFDIYAMDWYRQAPGKQRDLVATSFRDGSTNYADSVKGRFTISRDNAKNTLYLQMNSLKPEDTAVYLCHVSLYRDPLGVAGGMGVYWGKGALVTVSSGGGGSGGGGSEVQLVESGGGLVQPGGSLRLSCAVSISIFDIYAMDWYRQAPGKQRDLVATSFRDGSTNYADSVKGRFTISRDNAKNTLYLQMNSLKPEDTAVYLCHVSLYRDPLGVAGGMGVYWGKGALVTVSS
- average neutralization titer [8]: 7.3 nM
- average neutralization titer [10]: 6.1 nM
- average neutralization titer [13]: 14.7 nM
